B1: library; numbered along this chain (parent)
chain: MAAAGGARLLRAASAVLGGPAGRWLHHAGSRAGSSGLLRNRGPGGSAEASRSLSVSARARSSSEDKITVHFINRDGETLTTKGKVGDSLLDVVVENNLDIDGFGACEGTLACSTCHLIFEDHIYEKLDAITDEENDMLDLAYGLTDRSRLGCQICLTKSMDNMTVRVPETVADARQSIDVGKTS

Variants of: B1
Assay: scaled log2 fold change in cell abundance, elesclomol vs control (0 = silent mean, 1 = nonsense mean) (scaled log2 ratio); higher = higher viability under elesclomol (loss of FDX1 cuproptosis function)
Details: glucose 10 mM
Procedure: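 Deep mutational scan of full-length human FDX1: a pooled saturation-mutagenesis ORF library (every residue 2-184 mutated to all 19 amino acids plus stop, and silent codons where available) was expressed by lentivirus in FDX1-knockout ABC1 (14 days) or HEK293T (11 days) cells grown with elesclomol (ES) or DMSO control. Variant abundance came from ORF sequencing. The log2 fold change (ES vs control, mean of duplicates) was centred on the silent-variant mean (0) and scaled to the nonsense-variant mean (1). Higher values mean greater viability under ES, i.e. loss of FDX1 function in cuproptosis.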

[1] = with ABC1 FDX1 KO, elesclomol 5 nM, 14 days
[2] = with HEK293T FDX1 KO, elesclomol 40 nM, 11 days
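Further: variant abundance is its share of total variant reads in each endpoint sample, from next-generation sequencing of the integrated ORF PCR-amplified out of genomic DNA.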

Variant	scaled log2 fold change [1]	scaled log2 fold change [2]
W24N	-0.222	0.318
W24F	0.286	0.448
W24L	0.45	–
W24H	0.42	-0.545
W24M	0.24	-0.653
W24Q	-0.175	0.364
W24E	0.458	-0.438
W24V	0.155	-0.39
W24K	-0.318	-0.743
W24C	0.00637	-0.0787
W24I	-0.0623	–
W24R	-0.838	-0.244
A28W	-0.122	0.863
A28F	0.368	0.0914
A28E	0.301	-0.431
A28K	-0.114	0.248
A28C	0.232	0.15
A28L	-0.00195	–
A28N	-0.0865	-0.0101
A28I	-0.00142	0.691
A28D	0.233	-0.109
A28G	0.336	1.17
A28S	-0.179	-0.13
A28P	0.56	0.292
A28V	0.133	-0.408

Variant	scaled log2 fold change [1]	scaled log2 fold change [2]
A28H	-0.736	-0.127
A28R	0.246	2.14
A28Q	0.264	0.224
A28M	-0.0504	-0.198
A28T	-0.152	–
A28Y	-0.00855	0.974
A15P	0.172	0.337
A15Q	0.208	0.886
A15W	0.0842	-0.229
A15I	-0.367	-0.0209
A15K	-0.22	-0.495
A15S	0.137	0.0336
A15H	0.0941	-0.215
A15Y	-0.822	–
A15N	-0.0399	-0.856
A15M	-0.0208	0.445
A15F	-0.0557	-0.87
A15E	0.311	-0.231
A15D	0.405	0.431
A15G	-0.419	0.437
A15V	0.02	–
A15L	-0.153	-0.301
A15T	0.322	-0.179
V16Q	0.575	–
V16P	-0.0976	0.175

Variant	scaled log2 fold change [1]	scaled log2 fold change [2]
V16E	-0.716	–
V16L	0.316	-0.316
V16G	-0.0956	0.0318
V16D	0.0655	-0.0447
V16T	0.119	-0.636
V16A	-0.668	–
V16S	0.228	-0.117
V16W	-0.405	–
V16F	-0.9	0.654
V16K	0.121	0.118
V16Y	0.461	0.705
V16C	0.174	0.501
V16R	-0.0133	–
V16I	-0.31	–
V16M	0.215	0.406
V16N	-0.645	-0.143
G19A	-0.167	-0.0193
G19V	-0.0119	1.01
G19Y	0.187	-0.867
G19F	0.0719	0.185
G19K	-0.0528	-0.256
G19H	0.674	–
G19L	-0.367	0.0638
G19S	0.267	0.0205
G19T	0.117	0.837

Variant	scaled log2 fold change [1]	scaled log2 fold change [2]
G19W	0.277	-0.266
G19N	-0.0111	0.0883
G19R	0.483	1.5
G19D	0.233	0.874
G19I	0.0203	-0.0307
G19M	-0.0059	-0.191
G19Q	0.00839	-0.000362
G19E	0.246	-0.028
G19C	-0.0683	-0.489
G19P	0.54	–
G22L	-0.306	–
G22M	0.793	–
G22K	0.385	0.488
G22T	-0.511	-0.29
G22R	-0.188	–
G22H	0.331	0.022
G22I	0.314	0.699
G22A	0.412	–
G22E	-0.42	-0.0922
G22C	-0.919	–
G22V	0.245	–
G22P	0.294	–
G22F	0.555	–
G22Y	0.703	0.208
H27V	0.305	0.364

Variant	scaled log2 fold change [1]	scaled log2 fold change [2]
H27P	-0.143	–
H27Y	-0.231	0.0795
H27F	0.196	0.363
H27L	0.396	–
H27A	-0.0135	0.337
H27D	-0.0235	-0.507
H27N	-0.105	0.565
H27T	-0.307	–
H27S	0.273	–
H27W	-0.436	0.305
H27I	-0.11	1.23
H27R	0.168	-0.247
H27K	0.325	0.621
H27Q	0.286	-0.318
H27G	0.0381	-0.171
H27M	0.0388	–
H27C	0.145	-0.412
H27E	-0.316	-0.0257
L25S	0.221	–
L25C	0.238	0.0546
L25V	0.553	–
L25N	-0.498	–
L25R	0.126	0.222
L25P	0.318	1.23
